Test [1] deals with HLA-B*44:03. Briefly: IEDB peptide-MHC binding, purified MHC/competitive/radioactivity; filed as Kd, often an IC50 or EC50 that approximates it; ≥ and ≤ were set here for values at or beyond the usual limits of such assays.
The target in test [2] is HLA-B*44:02. The test is described as above.
The target of test [3] is HLA-A*02:01. Description: IEDB peptide-MHC binding, purified MHC/competitive/fluorescence; ≥ and ≤ were set here for values at or beyond the usual limits of such assays.
Test [4] has as its target HLA-A*02:01. Description: IEDB peptide-MHC binding, purified MHC/direct/fluorescence; filed as Kd, often an IC50 or EC50 that approximates it; ≥ and ≤ were set here for values at or beyond the usual limits of such assays.
For test [5], the target named is HLA-A*03:01. The description is as above.
Test [6] concerns the target HLA-B*15:01. The description is as above.
Test [7] has as its target HLA-B*07:02. The description is as above.
Test [8] has as its target HLA-A*26:01. Briefly: IEDB peptide-MHC binding, purified MHC/competitive/radioactivity; filed as Kd, often an IC50 or EC50 that approximates it; ≥ and ≤ were set here for values at or beyond the usual limits of such assays.
Test [9] concerns the target HLA-A*02:01. Description: IEDB peptide-MHC binding, purified MHC/competitive/fluorescence; filed as Kd, often an IC50 or EC50 that approximates it; ≥ and ≤ were set here for values at or beyond the usual limits of such assays. The note with it: source organism: Bacillus anthracis str. A0488.
Test [10] deals with HLA-A*69:01. Description: IEDB peptide-MHC binding, purified MHC/direct/fluorescence; filed as Kd, often an IC50 or EC50 that approximates it; ≥ and ≤ were set here for values at or beyond the usual limits of such assays.
The target in test [11] is HLA-A*11:01. The test is described as above. The settings on record: source organism: Homo sapiens.
For test [12], the target named is HLA-A*02:06. Briefly: IEDB peptide-MHC binding, purified MHC/competitive/radioactivity; filed as Kd, often an IC50 or EC50 that approximates it; ≥ and ≤ were set here for values at or beyond the usual limits of such assays.
Test [13] has as its target HLA-A*02:03. The test is described as above.
In test [14] the target is HLA-A*02:02. Described as above.
The mark [15] stands for this setting: source organism: Dengue virus 1 Singapore/S275/1990.
Where [16] appears, read: source organism: Dengue virus 2 Thailand/NGS-C/1944.
Setting [17] is: source organism: Zaire ebolavirus.
[18] abbreviates: source organism: Mycobacterium tuberculosis str. Haarlem.
Where [19] appears, read: source organism: Dengue virus 1 Brazil/97-11/1997.
Setting [20] is: source organism: Dengue virus 2 Jamaica/1409/1983.
[21] abbreviates: source organism: Vaccinia virus WR.
Setting [22] is: source organism: Mycobacterium avium 104.
Setting [23] is: source organism: Salmonella enterica subsp. enterica serovar Typhimurium.
Setting [24] is: source organism: SARS coronavirus Tor2.

The values that follow come from the Immune Epitope Database (IEDB).

Bounds are passed on as bounds.

Take NEGIMAVGI: the Kd (commonly a measure of binding affinity in units of concentration) was found to be 160 nM in [1] (setting [15]) and 48 nM in test [2] (setting [15]). Take NEMVLLQMEN: the Kd in test [1] (setting [16]) was 1440 nM; in [2] (setting [16]), 512 nM. As to NLEHGLFPQ, in test [3] (setting [17]), the IC50 – broadly, the concentration at which inhibition is half-maximal – is not below 304 µM. Turning to PECPSASRAW, in test [2] (source organism: Dengue virus 3 Martinique/1243/1999), the Kd was 1120 nM. With PMVHSTFLI, the Kd in [4] (source organism: Homo sapiens) is 2430 nM.

QLAKAIITP: the IC50 in test [3] (source organism: Vaccinia virus Copenhagen) is not below 96.3 µM. On to QVNNLEEIC, for which the IC50 in [3] (setting [17]) was not below 112 µM. As to RMGAAVTPY, the Kd in test [5] (setting [18]) was 254 nM; in test [6] (setting [18]), 98.8 nM.

In test [5] (source organism: Bacillus cereus), RMMASSMSQ came in with a Kd not below 20000 nM.

In the case of RNRDQSNAL, in test [7] (source organism: Mycobacterium tuberculosis), the dissociation constant (Kd) stood at 112 nM. In the case of SAVNMTSRM, in [8] (setting [19]), the Kd came out at 1220 nM.

Consider SELFRSRLDSY, for which the Kd in test [2] (source organism: Homo sapiens) was found to be 5.4 nM. As for SEMIIPKNF, the dissociation constant Kd is 12.9 nM in test [1] (setting [20]) and 10.7 nM in test [2] (setting [20]). As for SLAALFYSL, the Kd in test [9] is 1.8 nM. As to SLTKLFSYG, the 50% inhibitory concentration (IC50) in test [3] (source organism: Variola virus) is 8.92 µM. SMVNGVVKL: the Kd in test [10] (setting [15]) is not below 20 µM. For SRNSTHEMYW, the Kd in test [1] (setting [20]) was 1370 nM; in test [2] (setting [20]) it was 6360 nM. SSLPPLESD registered an IC50 in [3] (setting [17]) not below 170 µM. Consider STEIGLLVG, for which the dissociation constant (Kd) in test [11] turned out to be 12.4 µM. Regarding STPQGLVKRF, in test [8] (source organism: Dengue virus 4 Philippines/H241/1956), the Kd amounted to 453 nM. TTLATISTS: the IC50 in test [3] (setting [17]) was found to be 6.62 µM. As for TVIALFLAH, the Kd in [8] (setting [19]) stood at 12200 nM. As to VEGLSGATW, the values for the Kd in [1] (setting [19]) and in test [2] (setting [19]) were 89.1 nM and 30 nM, respectively. VLFDLDEDD: the concentration for half-maximal inhibition (IC50) in test [3] (setting [17]) is 3.74 µM.

For the sequence VVKDKIKLPT, the dissociation constant Kd in test [12] (setting [21]) is not below 29200 nM; in test [13] (setting [21]) it was 8600 nM; in test [14] (setting [21]) it was not below 37300 nM. VYLPGRGGV: the Kd was not below 20000 nM in test [4] (setting [22]) and not below 20 µM in [10] (setting [22]). In the case of WLKGNISPV, the Kd in test [4] (setting [23]) was found to be 20.5 nM; in test [6] (setting [23]), 795 nM; in [7] (setting [23]), 3110 nM; in test [10] (setting [23]), 0.536 µM.

As for WLMWFIISIV, the Kd turned out to be 107 nM in [12] (setting [24]), 4.72 nM in [13] (setting [24]) and 246 nM in test [14] (setting [24]). Take WVIILFQKA: the concentration for half-maximal inhibition (IC50) in test [3] (source organism: Sudan ebolavirus) was not below 341 µM.

As to YAVLSEYETM, the Kd in [12] (setting [21]) is 1210 nM; in [13] (setting [21]), 9630 nM; in test [14] (setting [21]), 157 nM. Taken in the same sequence, the figures for YIEDELRRA were 1230 nM, 259 nM and 1760 nM. The like results for YIRRNMINKL were, in that order, 8660 nM, 69.6 nM and 820 nM. Take YIWKSYVHI: the Kd came to 8.89 nM in test [12] (setting [24]), 12.9 nM in test [13] (setting [24]) and 86.4 nM in test [14] (setting [24]). On to YLGHSAGFTA, for which the results for the Kd in test [12] (setting [21]), in [13] (setting [21]) and in [14] (setting [21]) were 144 nM, 86.1 nM and 16.4 nM, respectively. Taken in the same sequence, the figures for YTEAAAATCA were 7150 nM, 16100 nM and not below 36500 nM. The like results for YVEHDPRLVA were, in that order, 11900 nM, 16200 nM and 18600 nM.
